This data set can be described thus: self-splicing fitness, log relative to wild type (ln ratio); higher = more splicing; Tetrahymena group I intron in knt gene, E. coli kanamycin selection, DiMSum; sequences stand for … in CUCUCU…GGAGGGAAAAGUUAUCAGGCAUGCACCUGGUAGCUAGUCUUUAAACCAAUAGAUUGCAUCGGUUUAAAAGGCAAGACCGUCAAAUUGCGGGAAAGGGGUCAACAGCCGUUCAGUACCAAGUCUCAGGGGAAACUUUGAGAUGGCCUUGCAAAGGGUAUGGUAAUAAGCUGACGGACAUGGUCCUAACCACGCAGCCAAGUCCUAAGUCAACAGAUCUUCUGUUGAUAUGGAUGCAGUUCACAGACUAAAUGUCGGUCGGGGAAGAUGUAUUCUUCUCAUAAGAUAUAGUCGGACCUCUCCUUAAUGGGAGCUAGCGGAUGAAGUGAUGCAACACUGGAGCCGCUGGGAACUAAUUUGUAUGCGAAAGUAUAUUGAUUAGUUUUGGAGUACUCGUGGUCG
The essentials: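 Pooled colonies went to amplicon sequencing on an Illumina HiSeq 2500 after six replicate transformations. The plates were LB agar with 100 μg/mL carbenicillin, 50 μM IPTG and 0.2% rhamnose, with or without 25 μg/mL kanamycin, incubated overnight at 37°C or 30°C. The E. coli BL21(DE3) library had all eight P1ex-region intron nucleotides randomised, the intron placed in the knt kanamycin-resistance gene on pET-22b(+). DiMSum fitness is the error-weighted combination of replicate fold changes, kanamycin against none, normalised to wild type.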

± gives the uncertainty stated by the source.

Turning to AUUCAGCAAUAUUACGAGUA, the “self-splicing fitness (ln)” value (30 °C) is -1.81 ± 0.2 and the “self-splicing fitness (ln)” value (37 °C) is -1.24 ± 0.18. In the same order, the values of GAGUAGCAAUAUUACGUUCA are -0.849 ± 0.075 and -0.31 ± 0.095.

Consider UGCAAGCAAUAUUACGAUCC, for which the “self-splicing fitness (ln)” value is -1.21 ± 0.14 (30 °C) and -0.955 ± 0.2 (37 °C). As to AGCCAGCAAUAUUACGUGGU, the “self-splicing fitness (ln)” value was -3.52 ± 0.14 (30 °C) and -3.58 ± 0.2 (37 °C).

For AUGCAGCAAUAUUACGCCUG, the “self-splicing fitness (ln)” value (30 °C) is -2.61 ± 0.35. With CCUAAGCAAUAUUACGAGCG, the “self-splicing fitness (ln)” value is -0.823 ± 0.097 (30 °C) and -0.11 ± 0.11 (37 °C). In the same order, the values of ACCCAGCAAUAUUACGAGAG are -2.16 ± 0.086 and -0.789 ± 0.09. Consider CUUCAGCAAUAUUACGGGCA, for which the “self-splicing fitness (ln)” value was -3.21 ± 0.4 (30 °C) and -2.64 ± 0.27 (37 °C). Turning to UUGUAGCAAUAUUACGUUCG, the “self-splicing fitness (ln)” value runs as follows: (30 °C) -0.926 ± 0.14; (37 °C) -0.622 ± 0.16. Consider CAGAAGCAAUAUUACGGGAC, for which the “self-splicing fitness (ln)” value (37 °C) is -1.25 ± 0.35.

Take CGCGAGCAAUAUUACGGAGU: the “self-splicing fitness (ln)” value (30 °C) is -4.33 ± 0.46 and the “self-splicing fitness (ln)” value (37 °C) is -2.08 ± 0.21. On the same counts, the results for UGCCAGCAAUAUUACGUUAU are -3.98 ± 0.2 and -0.982 ± 0.12.

As to UCAGAGCAAUAUUACGCCCU, under “37 °C”, the “self-splicing fitness (ln)” value is -2.21 ± 0.39. As to GGUCAGCAAUAUUACGCCGU, the “self-splicing fitness (ln)” value is -2.61 ± 0.16 (30 °C) and -0.39 ± 0.15 (37 °C). On the same counts, the results for CGGCAGCAAUAUUACGCAAG are -1.93 ± 0.13 and -1.01 ± 0.16. On the same counts, the results for UGACAGCAAUAUUACGCACA are 0.341 ± 0.092 and 0.528 ± 0.12.

As for GGGUAGCAAUAUUACGACUG, the “self-splicing fitness (ln)” value amounted to 0.0705 ± 0.13 (30 °C) and 0.222 ± 0.18 (37 °C).

For CAAAAGCAAUAUUACGUCGA, the “self-splicing fitness (ln)” value by setting is: (30 °C) -2.16 ± 0.086; (37 °C) -1.06 ± 0.084. On the same counts, the results for GUGCAGCAAUAUUACGACCC are -0.76 ± 0.13 and 0.132 ± 0.18. In the same order, the values of AGGCAGCAAUAUUACGGAAA are -2.91 ± 0.48 and -2.14 ± 0.24. As for ACAGAGCAAUAUUACGGACU, the “self-splicing fitness (ln)” value was -2.73 ± 0.18 (30 °C) and -1.07 ± 0.14 (37 °C). On to UGAGAGCAAUAUUACGUUCA, for which the “self-splicing fitness (ln)” value reads like this: (30 °C) -0.924 ± 0.12; (37 °C) -0.794 ± 0.12. On the same counts, the results for CCUUAGCAAUAUUACGUGUU are -4.69 ± 0.32 and -3.25 ± 0.21. In the same order, the values of UGUCAGCAAUAUUACGACGC are -2.44 ± 0.22 and -1.61 ± 0.22.

Regarding UAGCAGCAAUAUUACGCCUC, the “self-splicing fitness (ln)” value is -3.28 ± 0.16 (30 °C) and -1.11 ± 0.12 (37 °C). In the same order, the values of CUGCAGCAAUAUUACGUGGC are -3.72 ± 0.21 and -3.03 ± 0.24. On to UGCCAGCAAUAUUACGAAUU, for which the “self-splicing fitness (ln)” value (30 °C) was -3.68 ± 0.26 and the “self-splicing fitness (ln)” value (37 °C) is -3.3 ± 0.24. On the same counts, the results for ACCAAGCAAUAUUACGUAAC are -3.94 ± 0.17 and -2.19 ± 0.16. With CUCUAGCAAUAUUACGAGUA, the “self-splicing fitness (ln)” value (37 °C) is -1.18 ± 0.21.

As for GCGAAGCAAUAUUACGACUG, the “self-splicing fitness (ln)” value is -1.72 ± 0.14 (30 °C) and -0.66 ± 0.14 (37 °C). Consider GUUCAGCAAUAUUACGACUA, for which the “self-splicing fitness (ln)” value (30 °C) was -1.28 ± 0.17 and the “self-splicing fitness (ln)” value (37 °C) is -0.368 ± 0.15. Take AACCAGCAAUAUUACGACUA: the “self-splicing fitness (ln)” value runs as follows: (30 °C) 0.0905 ± 0.084; (37 °C) -0.0751 ± 0.079. In the same order, the values of CUCCAGCAAUAUUACGACGA are -3.77 ± 0.26 and -2.5 ± 0.18. On the same counts, the results for CUAGAGCAAUAUUACGCAUG are -0.244 ± 0.092 and 0.532 ± 0.1.

For the sequence CUGCAGCAAUAUUACGCAAA, the “self-splicing fitness (ln)” value was -2.18 ± 0.2 (30 °C) and -3.55 ± 0.24 (37 °C).

Consider AUGCAGCAAUAUUACGGGAU, for which the “self-splicing fitness (ln)” value runs as follows: (30 °C) -2.25 ± 0.088; (37 °C) -1.06 ± 0.097.

Turning to CUACAGCAAUAUUACGGGUG, the “self-splicing fitness (ln)” value is -0.249 ± 0.037 (30 °C) and -0.538 ± 0.053 (37 °C).

UGUCAGCAAUAUUACGGAUG: the “self-splicing fitness (ln)” value runs as follows: (30 °C) -2.07 ± 0.088; (37 °C) -0.996 ± 0.1. In the same order, the values of CACAAGCAAUAUUACGUUUG are -2.89 ± 0.078 and -2.14 ± 0.089.

(Values after the supplement of paper PMC7877785.)
